The nanobody polyreactivity screen of Harvey et al. (2022)

Experiment: yeast display, Sf9 membrane polyspecificity reagent, FACS + sequencing; frameworks hold sequencing errors
Outline: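 Nanobodies from a synthetic yeast display library (Saccharomyces cerevisiae BJ5465), induced 36–48 hours with galactose, were stained 1 hour at 4 °C with 10% biotinylated, detergent-solubilized Sf9 membrane reagent, enriched on streptavidin microbeads, then FACS-sorted. Anti-HA (expression) and streptavidin (reagent binding) fluorescence set low and high (top ~1%) gates. Polyreactivity labels come from the gate of origin. Genes were colony-PCR amplified, MiSeq 2 × 250 sequenced and filtered by CDR length.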

For “QVQLVESGGGLVQAGGSLRLSCAASGFIFGAYAMGWYRQAPGKERELVAAITKSGGRTYYADSVKGRFTISRDNAKNTVYLQMNSLKPEDTAVYYCAAVTRYPGEYDYWGQGTQVTVSS”, the “polyreactivity (PSR sort gate)” value was “high polyreactivity”.
For “QVQLVESGGGLVQAGGSLRLSCAASGFIFGDYAMGWYRQAPGKERELVAAINYSGGSTYYADSVKGRFTISRDNAKNTVYLQMNSLKPEDTAVYYCAALIYGLVGWGQGTQVTVSS”, the “polyreactivity (PSR sort gate)” value was “low polyreactivity”.
For “QVQLVESGGGLVQAGGSLRLSCAASGFIFGGNAMGWYRQAPGKERELVAAVSWIAGSTHYADSVKGRFTISRDNAKNTVYLQMNSLKPEDTAVYYCAADHEGSLSRGFTETDYDYWGQGTQVTVSS”, the “polyreactivity (PSR sort gate)” value was “low polyreactivity”.
For “QVQLVESGGGLVQAGGSLRLSCAASGFIFGGNTMGWSRQAPGKERELVASITLSGGRTHYADSVKGRFTISRDNAKNTVYLQMNSLKPEDTAVYYCARSLASYLHAGDTEYNGSYWGQGTQVTVSS”, the “polyreactivity (PSR sort gate)” value was “low polyreactivity”.
With “QVQLVESGGGLVQAGGSLRLSCAASGFIFGGYAMGWYRQAHGKEREWVAAISRSGGSTYYADSVKGRFTISRDNAKNTVYLQMNSLKPEDTAVYYCNAVPRRQGFNYWGQGTQVTVSS” the “polyreactivity (PSR sort gate)” value was “high polyreactivity”.
For “QVQLVESGGGLVQAGGSLRLSCAASGFIFGGYAMGWYRQAPGKERELVAAISRSGGSTYYADSVKGRFTISRDNEKNTVYLQMNSVKPEDTAVYYCNAVPRRQGFNYWGQCTQVTVSS”, the “polyreactivity (PSR sort gate)” value was “high polyreactivity”.
For “QVQLVESGGGLVQAGGSLRLSCAASGFIFGGYAMGWYRQAPGKERELVAAITGGGTTYYADSVKGRFTISRDNAKNTVYLQMNSLKPEDTAVYYCAAAYRLGYHKYYYWGQGTQVTVSS”, the “polyreactivity (PSR sort gate)” value was “high polyreactivity”.
With “QVQLVESGGGLVQAGGSLRLSCAASGFIFGGYAMGWYRQAPGKERELVARITRSGGSTYYADSVKGRFTISRDNAKNTVYLQMNSLKPEDTAVYYCNARYGKPAYQYGMDYWGQGTQVTVSS” the “polyreactivity (PSR sort gate)” value was “low polyreactivity”.
For “QVQLVESGGGLVQAGGSLRLSCAASGFIFGHNAMGWYRQAPGKERELVASISKSGGDTYYADSVKGRFTISRDNAKNTVYLQMNSLKPEDTAVYYCAAQGAVFEILDYWGQGTQVTVSS”, the “polyreactivity (PSR sort gate)” value was “low polyreactivity”.
In the case of “QVQLVESGGGLVQAGGSLRLSCAASGFIFGHYAMGWYRQAPGKERELVATISSGGSTKYADSVKGRFTISRDNAKNTVYLQMNSLKPEDTAVYYCAKKLWYLYHHYDYWGQGTQVTVSS”, the “polyreactivity (PSR sort gate)” value is reported as “low polyreactivity”.
For “QVQLVESGGGLVQAGGSLRLSCAASGFIFGINAMGWYRQAPGKEREFVATITSGGGTNYADSVKGLFTISRDNAKNTVYLQMHSLKPEDTAVYYGAAEEDYIYFYVSMDYWGQGTQVTVSS”, the “polyreactivity (PSR sort gate)” value was “low polyreactivity”.
For “QVQLVESGGGLVQAGGSLRLSCAASGFIFGIYAMGWYRQAPGNEWEFVAAITGSAGSTYYADSVKGRFTISRDNAKNTVYLQMNSLKPEDTAVYYCATDVLPRKYDSDYPSGAYDYWGQGTQVTVSS”, the “polyreactivity (PSR sort gate)” value was “low polyreactivity”.
For “QVQLVESGGGLVQAGGSLRLSCAASGFIFGKNAMGWYRQAPGKERELVAVISWRGSSTYYADSVKGRFTISRDNAKNTVYLQMNSLKPEDTAVYYCAARYPARGTLYYWGQGTQVTVSS”, the “polyreactivity (PSR sort gate)” value was “low polyreactivity”.
For “QVQLVESGGGLVQAGGSLRLSCAASGFIFGKYAMGWYRQAPGKERELVAAISRSSRTFYADSVKGRFTISRDNAKNTVYLQMNSRKPEDTAVYYCAVKKRAPDGDYWGQGTQVTVSS”, the “polyreactivity (PSR sort gate)” value was “high polyreactivity”.
For “QVQLVESGGGLVQAGGSLRLSCAASGFIFGLNAMGWYRPAPGKERELVAAIRSASSTNYADSVKGRFTISRDNAKNTVYLQMNSLKPEDTAVYYCAAEYVTYQQGFWGYDYWGQGTQVTVSS”, the “polyreactivity (PSR sort gate)” value was “low polyreactivity”.
For “QVQLVESGGGLVQAGGSLRLSCAASGFIFGNYAMGWYRPAPGKERELVATITRRGGRTYYADSVKGRFTISRDNAKNTVYLQMNSLKPEDTAVYYCNAGAYYLLSGQDDMDYWGQGTQVTVSS”, the “polyreactivity (PSR sort gate)” value was “high polyreactivity”.
In the case of “QVQLVESGGGLVQAGGSLRLSCAASGFIFGPYAMGWYRQAPGKERELVAASWRGGSTYYADSVKGRFTISRDNAKNTVYLQMNSLKPEDTAVYYCAADVFYSLYYYWGQGTQVTVSS”, the “polyreactivity (PSR sort gate)” value is reported as “low polyreactivity”.
In the case of “QVQLVESGGGLVQAGGSLRLSCAASGFIFGQYAMGWYRQAPGKERELVAAISWSGGRTNYADSVKGRFTISRDNAKNTVYLQMNSLKPEDTAVYYCAARKGKYPQYPYGYWGQGTQVTVSA”, the “polyreactivity (PSR sort gate)” value is reported as “high polyreactivity”.
With “QVQLVESGGGLVQAGGSLRLSCAASGFIFGRYTMGWYRQAPGKERELVAAITYSGNTYYADSVKGRFTISRDNAKNTVYLQMNSLKPEDTAVYYCNAYGANFRAFRNAYKYWGQGTQVTVSS” the “polyreactivity (PSR sort gate)” value was “high polyreactivity”.
For “QVQLVESGGGLVQAGGSLRLSCAASGFIFGSNAMGWYRQAPGKERELVAAISSRGGRTYYADSVKGRFTISRDNAKNTVYLQMNSLKPEDTAVYYCATVRYRALRYDYWGQGTQVTVSS”, the “polyreactivity (PSR sort gate)” value was “high polyreactivity”.
In the case of “QVQLVESGGGLVQAGGSLRLSCAASGFIFGSYAMGWYRQAPGKERELVAAINWSGGSTYYADSVKGRFTISRDNAKNTVYLQMNSLKPDDTAVYYCAADRTYYSFLYYPWVDFDYWGQGTQVTVSS”, the “polyreactivity (PSR sort gate)” value is reported as “high polyreactivity”.
For “QVQLVESGGGLVQAGGSLRLSCAASGFIFGTNAMGWYRQAPGKERELVASISSTGGSTYYADSVKGRFTISRDNAKNTVYLQMNSLKPEDTAVYYFSADPYPEYIRYLPGVDYWGQGTQVTVSS”, the “polyreactivity (PSR sort gate)” value was “low polyreactivity”.
For “QVQLVESGGGLVQAGGSLRLSCAASGFIFGTNTMGWYRQAPGKERELVAAITSVGSTNYADSVKGRFTISRDNAKNTVYLQMNSLKPEDTAVYYCPATLYYQYGGDYWGQGTQVTVSS”, the “polyreactivity (PSR sort gate)” value was “low polyreactivity”.
For “QVQLVESGGGLVQAGGSLRLSCAASGFIFGTYAMGWYRQAPGKERELVAAISQSGGRTYYADSVKGRFTISRDNAKNTVYLQMISLKPEDTAVYYCAARHRPTGISTGYDYWGQGTQVTVSS”, the “polyreactivity (PSR sort gate)” value was “high polyreactivity”.
With “QVQLVESGGGLVQAGGSLRLSCAASGFIFGTYAMGWYRQAPGKERELVAAISVGGGSTYYADSVKGRFTISRDTAKNTVYLQMNSLKPEDTAVYYCAAVQLYQKHQITYVAHEYWGQGTQVTVSS” the “polyreactivity (PSR sort gate)” value was “low polyreactivity”.
With “QVQLVESGGGLVQAGGSLRLSCAASGFIFGTYVMGWYRQAPGKERELVAAISESGGRTYYADSVKGRFTISRDNAKNTVYLQMNSLKPEDTADYYCAKLRHIRFHYYYGYQSYYYWVQGTQVTVSS” the “polyreactivity (PSR sort gate)” value was “high polyreactivity”.
With “QVQLVESGGGLVQAGGSLRLSCAASGFIFGVNAMGWYRQARGKERELVAAISTSGGSTYYADSVKGRFTISRDNAKNTVYLQMNSLKPEDTAVYYCAALLHRWAYGTYGYVYWGQGSQVTVSS” the “polyreactivity (PSR sort gate)” value was “high polyreactivity”.
With “QVQLVESGGGLVQAGGSLRLSCAASGFIFGVYAMGWYRKATGKERELVAAITTRAGTNYADSVKGRFTISRDNAKNTVYLQMNSLKPEDPAVYYCNAVGWYLLPYDYWGQGTQVTVSS” the “polyreactivity (PSR sort gate)” value was “low polyreactivity”.
For “QVQLVESGGGLVQAGGSLRLSCAASGFIFGWNAMGWYRQAPGKEREFVAAITSSGTSTYYADSVKGRFTISRDNAKNTVYLQMNSLKPEDTAVYYCATEGWPFYPARDYDYWGQGTQVTVSS”, the “polyreactivity (PSR sort gate)” value was “low polyreactivity”.
With “QVQLVESGGGLVQAGGSLRLSCAASGFIFGYNAMGWDRQAPGKERELVAAITRSGGRTYYADSVKGRFTISRDNAKNTVSLQMNSLKPEDTAVYYCAASRFATYPRWYDYWGQGTQVTVSS” the “polyreactivity (PSR sort gate)” value was “low polyreactivity”.
For “QVQLVESGGGLVQAGGSLRLSCAASGFIFGYNAMGWYRQAPGKERELVAAISTRGGSTYYADSVKGRFTISRDNAKNTVYLQMNSLKPEDTAVYYCNKVTRVPFDSWGQCTQVTVSS”, the “polyreactivity (PSR sort gate)” value was “high polyreactivity”.
